Laboratory results published in PMC4402209.

Biological target: KCTD12 (UniProt Q6WVG3)
Test: anti-Rluc IP of Rluc-KCTD12, GB2 blot
Conditions: reference: GB2-WT, no 8-Br-cAMP; sites S892

GABAB2 (GB2) (from UniProt O88871) GB2-WT, 8-Br-cAMP 1 mM 30 min
percent of reference: 103%
